Assay results as given in patent US20120237528A1 (Janssen / Centocor, published 2012).
Like-named read-outs stand apart in the source and are kept apart here.

B1: M61 (antibody, V domains shown)
VH: EVQLVQSGAEVKKPGESLRISCKGSGYTFITYWIEWVRQMPGKGLEWMGDILPGSGSTNYSPSFQGHVTISADKSISTAYLQWSSLKASDTAMYYCARSGYYGNSGFAYWGQGTLVTVSS
VL: DIVMTQTPLSLSVTPGQPASISCKSSQSLLSSGNQKNYLTWYLQKPGQPPQLLIYWASTRESGVPDRFSGSGSGTDFTLKISRVEAEDVGVYYCQNDYTYPLTFGQGTKLEIK
notes: complete MAb; FR4 is its own entry; also called H22/L5
B2: M1593 (wild-type human IgG1/kappa constant domains) (antibody)
heavy: not shown
light: DIVMTQTPLSLPVTPGEPASISCKSSQSLLSSGNQKNYLTWYLQKPGQSPQLLIYWASTRESGVPDRFSGSGSGTDFTLKISRVEAEDVGVYYCQNDYTYPLTFGQGTKLEIKRTVAAPSVFIFPPSDEQLKSGTASVVCLLNNFYPREAKVQWKVDNALQSGNSQESVTEQDSKDSTYSLSSTLTLSKADYEKHKVYACEVTHQGLSSPVTKSFNRGEC
notes: produced in unmodified CHO; also called H171/L3; copies: 2 + 2
B3: M1593-LF (hIgG1 produced in host subline producing reduced fucosylation in glycans) (antibody)
heavy: not shown
light: B2 light
modifications: glycan with low fucose content (less than 10% fucosylated)
notes: same chains as M1593 (IgG1/Kappa), made in a low-fucose CHO subline; copies: 2 + 2
B4: M1593-DE (hIgG1 with S239D/I332E) (antibody)
heavy: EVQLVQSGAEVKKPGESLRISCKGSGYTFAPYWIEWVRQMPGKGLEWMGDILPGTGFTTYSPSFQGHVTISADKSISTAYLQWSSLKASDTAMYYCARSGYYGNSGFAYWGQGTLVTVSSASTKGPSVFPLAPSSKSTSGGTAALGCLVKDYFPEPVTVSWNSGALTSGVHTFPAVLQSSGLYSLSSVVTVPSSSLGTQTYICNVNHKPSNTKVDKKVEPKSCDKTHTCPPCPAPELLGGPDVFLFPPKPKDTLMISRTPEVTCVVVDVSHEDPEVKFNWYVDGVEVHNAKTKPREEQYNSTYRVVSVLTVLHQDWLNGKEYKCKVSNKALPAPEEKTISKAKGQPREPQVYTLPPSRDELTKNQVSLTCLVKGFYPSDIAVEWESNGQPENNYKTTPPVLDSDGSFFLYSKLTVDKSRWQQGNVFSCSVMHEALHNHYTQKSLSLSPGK
light: B2 light
notes: copies: 2 + 2
B5: M1, 10H10 mouse-human chimera (antibody, V domains shown)
VH: QVHLQQSGAELMKPGASVKISCKASGYTFITYWIEWVKQRPGHGLEWIGDILPGSGSTNYNENFKGKATFTADSSSNTAYMQLSSLTSEDSAVYYCARSGYYGNSGFAYWGQGTLVTVSA
VL: DIVMTQSPSSLTVTAGEKVTMSCKSSQSLLSSGNQKNYLTWYQQIPGQPPKLLIYWASTRESGVPDRFTGSGSGTDFTLTINSVQAEDLAVYYCQNDYTYPLTFGAGTKLELK
notes: also called H13/L1; parent chimeric antibody

Legend:
[1] = molecular target: T1, recombinant extracellular domain (ECD) of human TF, amino acid 1-219 of the mature chain, C-terminal His6-tag (human, UniProt P13726 33-251); test: Biacore
T1 construct: expressed in a mammalian system; used for ELISA and Biacore; biotinylated by NHS-ester for the Fab ELISA; also called His6-TF-ECD1-219; HumanTF1-219

[2] = molecular target: T1, recombinant extracellular domain (ECD) …; test: Biacore; remark: listed apart in the source
[3] = molecular target: T1, recombinant extracellular domain (ECD) …; test: TF-ECD binding ELISA, chemiluminescent
[4] = molecular target: T2, Cynomolgous monkey (cyno) TF-ECD with His Tag (cynomolgus monkey, UniProt P13726 33-251 (human entry)); test: TF-ECD binding ELISA, chemiluminescent
T2 construct: also called cyno antigen
T2 chain: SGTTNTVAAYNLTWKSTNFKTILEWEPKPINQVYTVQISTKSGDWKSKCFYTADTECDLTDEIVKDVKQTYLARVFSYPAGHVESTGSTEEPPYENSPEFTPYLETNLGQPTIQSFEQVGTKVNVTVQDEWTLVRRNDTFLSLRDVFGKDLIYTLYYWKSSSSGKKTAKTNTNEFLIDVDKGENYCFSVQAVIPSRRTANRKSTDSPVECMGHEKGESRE

[5] = molecular target: T3, endogenous human tissue factor on MDA-MB-231 breast cancer cells (human, UniProt P13726 33-295); test: FACS on MDA-MB-231 cells
T3 construct: also called native TF; TF
Procedure: This assay is used to detect the direct binding of antibody to endogenouse human TF expressed in breast cancer cells. Prepare four point titrations of the test mAbs in FACS buffer (1% FBS in PBS) in duplicate. Start a titration at 1,000 ng/ml with 1:4 dilutions. […] Unstained cells and secondary antibody, Cy-5 conjugated Goat anti-Human IgG Fc antibody in FACS buffer 1:200, is used as controls and prepared immediately before use.
Using standard tissue culture technique, rinse adherent MDA-MB-231 cells in culture flask with once with PBS (w/o Ca+2/Mg+2). Lift cells with Versene and count the cells and seed 200,000 cells per well in a polystyrene V-bottom plate. FACS Analysis Protocol: Tissue Factor Binding. Pellet the cells in a Allegra X-15R centrifuge at 450×g for 3 minutes at 4° C., resuspend in FACS Buffer (2% FBS in PBS) and plate 200,000 cells per well in 200 uL. Pellet cells at 450×g for 3 minutes at 4° C. Discard supernatants and add 100 uL/well test or control mAbs to designated wells and incubate on ice or at 4° C. for 1 hour (+/−10 minutes). Pellet cells at 450×g for 3 minutes at 4° C. Discard supernatants and wash cells once in FACS buffer. Resuspend cells in 200 uL/well FACS buffer and pellet cells at 450×g for 3 minutes at 4° C. Discard supernatants and add 100 uL/well secondary antibody to designated wells (triterate), and incubate on ice for 1 hour (+/−10 minutes). Pellet cells at 450×g for 3 minutes at 4° C. Discard supernatants and wash cells 2 times in FACS buffer before resuspending the cells in 200 uL/well FACS Buffer (triterate). Pellet cells at 450×g for 3 minutes at 4° C. Discard supernatant and resuspend cells in 100 uL/well CytoFix Buffer. Analyze reactions by flow cytometry (BD FACSArray). The FlowJo Software is used for FACS data analysis by gating the main population of cells in the unstained control well and applying the gate to the whole data set. The data is exported as a table of the geometric mean fluorescence intensity (MFI) in the red channel for the applied gate.

[6] = molecular target: Innovin, lyophilized recombinant human tissue factor combined with phospholipids (human, UniProt P13726 33-295, limits assumed); test: cell-based or functional assay
[7] = molecular target: T1, recombinant extracellular domain (ECD) …; test: Biacore; remark: listed apart in the source
[8] = molecular target: T2, Cynomolgous monkey (cyno) TF-ECD with …; test: Biacore
[9] = molecular target: T3, endogenous human tissue factor on …; test: cell-based or functional assay
[10] = molecular target: T1, recombinant extracellular domain (ECD) …; test: Biacore, KD compared with the reference (0.56 nM, the value of M1 in Table 5)
[11] = molecular target: T3, endogenous human tissue factor on …; test: cell-based or functional assay; remark: listed apart in the source
[12] = molecular target: T4, recombinant human FcγIIIa receptor (human, UniProt P08637 17-208, limits assumed); test: Fc receptor binding assay (method of a co-pending application or Biacore)
T4 construct: also called FcγRIIIa
T4 sequence (P08637 17-208 limits assumed): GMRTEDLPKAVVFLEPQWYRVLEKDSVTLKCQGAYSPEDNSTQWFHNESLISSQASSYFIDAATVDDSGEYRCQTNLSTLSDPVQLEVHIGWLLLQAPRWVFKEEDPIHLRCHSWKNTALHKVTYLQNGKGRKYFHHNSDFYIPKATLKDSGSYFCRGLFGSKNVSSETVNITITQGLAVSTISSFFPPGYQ

[13] = molecular target: T4, recombinant human FcγIIIa receptor; test: cell-based or functional assay
[14] = molecular target: T4, recombinant human FcγIIIa receptor; test: Fc receptor binding assay
[15] = molecular target: T3, endogenous human tissue factor on …; test: cell-based or functional assay; remark: listed apart in the source

| Binder | fold lower KD than the murine parent MAb (M1) [1] [fold] | Kd [2] [nM] | koff [2] [s⁻¹] | kon [2] [M⁻¹ s⁻¹] | EC50 [3] [µg/mL] | EC50 [4] [µg/mL] | Whole Cell Binding, Ave % [5] [%] | T½ Max (seconds), coagulation of human plasma [6] [s] | Kd [7] [nM] | Kd [8] [nM] | IL-8 Induction, Ave % inhibition [9] [%] | fold lower KD than the murine parent MAb [10] [fold] | % IL-8 Inhibition [11] [%] | Kd [12] [nM] | EC50 (read off the curve) [13] [µg/mL] | fold tighter binding than the unmodified IgG1 M1593 [14] [fold] | IC50 (ug/ml), IL-8 induction assay [15] [µg/mL] |
| --- | --- | --- | --- | --- | --- | --- | --- | --- | --- | --- | --- | --- | --- | --- | --- | --- | --- |
| B1 | 2.5 | 0.2 | 1.9e-05 | 94100 | 0.0083 | 0.0241 | 111 | 186 | 0.21 | 1.71 | 112 | 2.5 | 107 |  |  |  |  |
| B2 |  |  |  |  |  |  |  | 164 |  |  |  |  |  | 210 | ~0.02 |  |  |
| B3 |  |  |  |  |  |  |  |  |  |  |  |  |  | 12 | ~0.006 | 18 |  |
| B4 |  |  |  |  |  |  |  |  |  |  |  |  |  | 5 | ~0.005 | 40 |  |
| B5 |  |  |  |  | 0.0117 | 0.0173 | 101 | 173 | 0.56 | 1.34 | 106 |  | 96.1 |  | ~0.07 |  | 0.527 |
